Reference: the nanobody polyreactivity screen of Harvey et al. (2022)

Experiment: yeast display, Sf9 membrane polyspecificity reagent, FACS + sequencing; frameworks hold sequencing errors
How it was run: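 Synthetic nanobody libraries on Saccharomyces cerevisiae BJ5465 were galactose-induced for 36–48 hours, stained 1 hour at 4 °C with 10% biotinylated, detergent-solubilized Sf9 membrane reagent and enriched on streptavidin microbeads. FACS then separated cells into low and high (top ~1%) gates by anti-HA (expression) and streptavidin (reagent binding) fluorescence. Genes were colony-PCR amplified, MiSeq 2 × 250 sequenced and CDR-length filtered. A clone's polyreactivity label is that of its gate of origin.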

Sequence	polyreactivity (PSR sort gate)
QVQLQESGGGLVQAGGSLRLTCAASGTISQEDWLGWYLQAPGKEREFVAAIGLGSNTNYADSLKGRFTISRDNAQNTVYLQMNSLKAEYTAVYYCAVSVWQYSDHVYRGQGTQVTVSS	low polyreactivity
QVQLVESGGGLVQAGGSLRLSCAASGIIFSTYAMGWYRQAPGKERELDATITSSGSNTYYADSVKGRFTISRDNAKNTVYLQMNSLKPEDTAVYYCNAVASHYDFGYWGQGTQVTVSS	high polyreactivity
QVQLVESGGGLVQAGGSLRLSCAASGSTIYLYAMGWYRQAPGKERELVAAIRGRGGRTYYADSVKGRFTISRDNAKNTVYLQMNSLKPEDTAVDYCNADVYAYYRATTRFDYWGQGTQVTVSS	high polyreactivity
QVQLVESGVGLVQAGGSLRLSCAASGSTFTYYAMGWYRQAPGKESELVAAITASGTSTYYPDSVKGRFTISRDYAKNTVYLQMNSLKPEDTAVYYCAATRFKWTRIYPYYTGQGYNYWGQGTQVTVSS	high polyreactivity
QVQLVESGGGLVQAGGSLRLSCAASGITFYDYAMGWYRQAPGKERELVAAISDSGGITYYADSVKGRFTISRDNAKNTVYLQMNSLKPEDTAVYYCNAKSVRRERYKFDYWGQGTQVTVSS	high polyreactivity
QVQLVESGGGLVQAGGSLRLSCAASGITFRYYAMGWYRQAPGKERELVASITSGGVNTYYADSVKGRFTISRDNAKNTVYLQMNSLKPEDTAVYYCATRFSYSALGGYDYWGQGTQVTVSS	low polyreactivity
QVQLVESGGGLVQAGGSLRLSCAASGITFDVNAMGWYRPAPGKERELVAAITAGGNTYYADSVKGRFTISRDNAKNTVYLQMNSLKPEDTAVYYCAAVSTSLYWAGYDYWGQGTQVTVSS	low polyreactivity
QVQLVESGGGLVQAGGSLRLSCAASGSIFKYYAMGWYRQAPGKERELVAAISSNGGRTYYADSVKGRFTISRDNAKNTVYLQMNSLKPEDTAVYYCNVVVKGAWDYYPYDYWGQGTQVTVSS	high polyreactivity
QVQLVESGGVLVQAGGSLRLSCAASGSIFYRYAMGWYRQAPGKERELVAANSSNGVSTYYADSVKGRFTISRDNAKNTVYLQMNSLKPEDTAVYYCARDVYASPRLYTSRYNYWGQGTQVTVSS	low polyreactivity
QVQLVESGGGLVQAGGSLRLSCAASGFTFRQNAMGWYRQAPGKERELVAAISYSGGRTYYADSVKGRFTISRDNEMNTVYLQMNRLKPEDTAVYYCAVTYGIDYGYEYWGQGTQVTVSS	high polyreactivity
QVQLVESGGGLVQAGGPLRLSCAASGFTFGYYTMGWYRQAPGKERELVAAISWRGGRTYYADSVKGRFTISRDNAKNTVYLQMNSLKPEETAVYYCAAEYTYGWTYRPFVYWGQGTQVTVSS	high polyreactivity
QVQLVESGGGLVQAGGSLRLICAASGRTIWSNAMGRYRHAPGKEWEFVAGISQDGTSRYYADSVKGRFTISRDNAKNTVYLQMNSLKPEDTAVYYCAARSSFRRRSGPTPYGFDYWGQGTQVTVSS	high polyreactivity
QVHLVDSGGGLVQAGGILRLSCSDYGSTFALYAMGWYRQSPGKVSELVAPITTSGGNTYYADSVKGRFTISRDNAKNTVYLQMNSLKPEDTAVYYCAADPWWSYTSYLRYYNLEMNYWGQGTQVTVSS	high polyreactivity
QVQLVESGGGLVQAGGSLRLSCAASGIIFPYYAMGWYRQATGKERELVAAITRGGITYYADSVKGRFTISRDNAKNTVYLQMNSLKPEDTAVYYCAARLRGSYDYWGQGTQVTVSS	high polyreactivity
QVQLVESGGCLVQAGGSLRLSCAASGSIFRYNIGWYRQAPGKERELVAAISSSGVRTYYADSVKGRFTISRDNAKNTVYLQMNSLKPEDTAVYYCAAASGGRWRVGYWGQGTQVTVSS	high polyreactivity
QVQLVESGGGLVHAGGSLRISCAASGRIFYKYAMAWYRQAPGKERELVAAISTRGGSTYYADSVKWRFTISRDIAKNTVYSQMNSLKPEDTAVYYCAALSAYGYDYCGQGTQVTVSS	high polyreactivity

Sequence	polyreactivity (PSR sort gate)
QVQLVESGGGLVQAGGSLRLSCAASALIFKTYTMGWYRQAPGKEREFVAAITTSGGSTYYADSVKGRFTISRDNAKNTVYLQMNSLKPEDTAVYYCAAVWWKSFQGSSYRMNYWGQGTQVTVSS	high polyreactivity
QVHLVESGGGLVQAGGSLRLSCAASGSIFYYYGMGWYRQAPGIERELVAAISSGGRTYYADSVKGRFTISRDNAKNTVYLQMDSLKPEDTAVYYCAKPGSYAVYSGWHDYWGQGTQVTVSS	high polyreactivity
QVQLVESGGGLVQAGGSLRLSCAASGRIITGNAMGWYRQAPGKERELVATITRRGGSTYYADSVKGRFTISRDNAKNTVYLQMNSLKPEDTAVYYCAANRLFSYDKYGYWGQGTQVTVSS	high polyreactivity
QVQLVESGVCLVQAGGSLRLICAASGNIFYGYAMGWYRQAPGKESELVAAISTGGSTNYADSVKGRFTISRDNAKNTVYLQMNSLKPVDTAVYYCASDDPQQYGVRQLGYDSWGQVTQVTVSS	low polyreactivity
QVQLVESGGGLVQAGGSLRLSCAASGRTFRPYAMGWYRQAPGTERELVARITSGGGRTYYADSVKGRFTISRDNAKNTVYLQMNSLKPEDNAVYYCNKAIYSLYRDGYTNFDYWGQGTQVTVSS	high polyreactivity
HLQMQESGGGLVQAGGSLRLSCASSGSIFQATYMGWYRQAPGKEREFVASITYGSITNYADSVKGRFTIGRDNAKDTLYLQMNSLKPEDTAVYYCAVDRHYIPAFHYWGQGTQVTVSS	low polyreactivity
QVQLVESGGGLVQAGCSLRLSCAASGRIFYSNVMGWYRQAPGKERELVAAISGRTGGTYYADSVKGRFTISRDTAKNTVYLQMNSLKPEDTAVYYCAARVIYYYGSGPYDYWGQGTQVTVSS	low polyreactivity
QVQLVESGGGLVQAGGSLRLSCAASGRTIRWYTMGWYRQAPGKERELVAGISSSGGSTYYAESVKGRYTISRDYAKNTVYLQMNSLKPEDTAVYYCAASAAYYGFYKSVSYEYWGQGTQLTVSS	low polyreactivity
QVQLVESGGGLVQAGGSLRLSCAASGGTFRVYAMGWYIQAPGKERELVASISWTVGGTYADSVKGRFTISRDNAKNTVYLQMNSLKPEDTAVYYCAAGGEWVNPYFPSSLDYWGQGTQVTVSS	low polyreactivity
QVQLVESGGGLVQAGGSLRLSCAASGSIFAWNAMGWYRQAPGKERELVATIRSTGGSTYYADSVKGRFTISRDNAKNTVYLQMNSLKPEYTAVYYCAADYQAGDKLYDYWGQGTQVTVSS	low polyreactivity
QVQLVESGGGLVQAGGSLRLSCAASGLIFRGYAMGWYRQAPGKERELVAAISGSGVTTYYADSVKGRFTISRDYAKNSVYLQMNCLKPEDTAVYYCAASTRYEGNYWGQGTQVTVSS	high polyreactivity
QVQLVESGGGLVQAGGSLRLSCAASGRIFRYYAMGWYRQAPGKERELVAAISKSGGSTYYADSVKGRFTISRDNAKNTVYFQMNSLKPEDTGVYYCNARSRLGGLYEYWGQGTQVTVSS	high polyreactivity
QVQLVESGGGLVQAGGSLRLSCAASGSIFRDYAMGWYRQAPGKEMELVAAISSDGSTYYADSVKGRFTISRDNAKNTVYLQMNSLKPEDTAVYYCNAAHVAHRFIGYTRWNYYYWGQGTQVTVSS	high polyreactivity
QVQLVESGGGLVQAGGSLRLSCAASGIIFAGNAMGWYRQAPGKEREFVAAISYRGGTTYYADSVKGRFTISRDNAKNTVYLQMNSLKPEDTAVYYCAADPRSKGFYYGYDYWGQGTQGTVSS	high polyreactivity
QVQLVESGGGLVQAGGSLRLSCAASGRIFRYNAMGWYRQAPGKERELVAAISRGDGSTYYADSVKGRFTISRDNAKNTVYLQMNILKPEDTAVYYCAAAWSFIYFQHPAFKYDYWGQGTQVTVSS	low polyreactivity
